Details in all cases: both partners purified
For one test, the target named is T1, Tof1 (S. cerevisiae (budding yeast), UniProt P53840 1-1238).
T1 construct: Tof1, budding yeast; the Tof1 chain of m2; Stood in the cross-linking sample as a chain of the Tof1-Csm3 complex; source: purified as part of Tof1-Csm3, as previously described (Yeeles et al. 2017)
T1 sequence (looked up): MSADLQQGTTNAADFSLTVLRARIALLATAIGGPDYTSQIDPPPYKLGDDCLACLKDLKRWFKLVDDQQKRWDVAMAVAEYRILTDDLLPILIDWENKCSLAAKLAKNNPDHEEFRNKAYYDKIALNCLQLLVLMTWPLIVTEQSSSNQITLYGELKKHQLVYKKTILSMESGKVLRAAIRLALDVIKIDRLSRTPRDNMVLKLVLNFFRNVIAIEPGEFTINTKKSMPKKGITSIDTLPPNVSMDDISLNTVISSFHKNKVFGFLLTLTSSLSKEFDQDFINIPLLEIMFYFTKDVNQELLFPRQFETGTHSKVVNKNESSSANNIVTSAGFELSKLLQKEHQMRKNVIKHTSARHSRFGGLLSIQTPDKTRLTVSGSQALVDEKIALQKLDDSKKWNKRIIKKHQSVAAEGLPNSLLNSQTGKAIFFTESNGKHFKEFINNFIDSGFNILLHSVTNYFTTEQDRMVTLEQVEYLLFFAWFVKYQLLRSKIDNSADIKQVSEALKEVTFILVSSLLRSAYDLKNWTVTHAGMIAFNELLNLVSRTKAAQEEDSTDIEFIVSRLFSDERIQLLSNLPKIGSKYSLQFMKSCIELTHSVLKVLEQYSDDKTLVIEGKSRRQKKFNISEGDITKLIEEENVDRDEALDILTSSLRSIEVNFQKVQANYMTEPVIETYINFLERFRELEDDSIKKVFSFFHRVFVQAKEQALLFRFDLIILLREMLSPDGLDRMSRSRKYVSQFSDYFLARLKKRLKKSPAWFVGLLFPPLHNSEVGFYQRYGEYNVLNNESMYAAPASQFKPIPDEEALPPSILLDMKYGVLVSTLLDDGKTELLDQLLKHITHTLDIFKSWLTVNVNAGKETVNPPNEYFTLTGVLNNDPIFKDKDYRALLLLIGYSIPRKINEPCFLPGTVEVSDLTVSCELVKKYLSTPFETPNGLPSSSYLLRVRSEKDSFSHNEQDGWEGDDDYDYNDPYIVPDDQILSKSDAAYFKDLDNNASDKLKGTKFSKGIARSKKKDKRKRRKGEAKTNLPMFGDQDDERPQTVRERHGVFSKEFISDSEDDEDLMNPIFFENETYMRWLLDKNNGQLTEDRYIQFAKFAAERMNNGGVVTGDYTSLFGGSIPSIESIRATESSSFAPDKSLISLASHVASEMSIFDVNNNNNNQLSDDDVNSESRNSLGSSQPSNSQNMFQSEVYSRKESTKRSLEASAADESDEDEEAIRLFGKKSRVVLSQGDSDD
The experiment in a line: cross-linking; CLMS with sulfo-SDA; cohesin, Tof1-Csm3 and Chl1 with or without Mrc1 at 300-350 nM, 30 °C 5 min, cross-linker 2 h at 4 °C, UV 365 nm; LC-MS/MS, 1% FDR at residue-pair level; two samples merged.

The target in test [1] is T2, cohesin tetramer complex (Smc1-Smc3-Scc1-Scc3) (S. cerevisiae (budding yeast), UniProt P32908 1-1225; P47037 1-1230; Q12158 1-566; P40541 1-1150).
T2 construct: Smc1, cohesin subunit, budding yeast; Smc3, cohesin subunit, budding yeast; Scc1, cohesin subunit, budding yeast; Scc3, cohesin subunit, budding yeast; also called cohesin complex; source: purified as previously described (Minamino et al. 2018): IgG agarose, 3C protease cleavage; copies: + + +
T2 sequence (Q12158 whole entry, chain 3 of 2): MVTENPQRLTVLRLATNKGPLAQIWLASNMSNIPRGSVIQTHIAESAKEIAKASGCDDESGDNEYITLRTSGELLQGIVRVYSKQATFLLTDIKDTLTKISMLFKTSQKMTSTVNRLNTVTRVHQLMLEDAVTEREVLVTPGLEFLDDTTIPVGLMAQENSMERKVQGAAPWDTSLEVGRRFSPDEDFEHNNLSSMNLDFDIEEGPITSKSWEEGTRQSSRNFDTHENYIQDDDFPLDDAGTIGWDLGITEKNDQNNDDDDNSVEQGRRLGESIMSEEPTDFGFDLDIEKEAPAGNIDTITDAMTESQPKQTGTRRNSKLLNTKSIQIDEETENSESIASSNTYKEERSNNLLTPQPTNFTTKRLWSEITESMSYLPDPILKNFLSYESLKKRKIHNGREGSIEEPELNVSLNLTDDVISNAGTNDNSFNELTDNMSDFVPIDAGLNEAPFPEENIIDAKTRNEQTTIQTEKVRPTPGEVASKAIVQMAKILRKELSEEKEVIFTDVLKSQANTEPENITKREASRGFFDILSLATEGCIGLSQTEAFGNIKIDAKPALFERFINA
T2 sequence (P40541 whole entry, chain 4 of 2): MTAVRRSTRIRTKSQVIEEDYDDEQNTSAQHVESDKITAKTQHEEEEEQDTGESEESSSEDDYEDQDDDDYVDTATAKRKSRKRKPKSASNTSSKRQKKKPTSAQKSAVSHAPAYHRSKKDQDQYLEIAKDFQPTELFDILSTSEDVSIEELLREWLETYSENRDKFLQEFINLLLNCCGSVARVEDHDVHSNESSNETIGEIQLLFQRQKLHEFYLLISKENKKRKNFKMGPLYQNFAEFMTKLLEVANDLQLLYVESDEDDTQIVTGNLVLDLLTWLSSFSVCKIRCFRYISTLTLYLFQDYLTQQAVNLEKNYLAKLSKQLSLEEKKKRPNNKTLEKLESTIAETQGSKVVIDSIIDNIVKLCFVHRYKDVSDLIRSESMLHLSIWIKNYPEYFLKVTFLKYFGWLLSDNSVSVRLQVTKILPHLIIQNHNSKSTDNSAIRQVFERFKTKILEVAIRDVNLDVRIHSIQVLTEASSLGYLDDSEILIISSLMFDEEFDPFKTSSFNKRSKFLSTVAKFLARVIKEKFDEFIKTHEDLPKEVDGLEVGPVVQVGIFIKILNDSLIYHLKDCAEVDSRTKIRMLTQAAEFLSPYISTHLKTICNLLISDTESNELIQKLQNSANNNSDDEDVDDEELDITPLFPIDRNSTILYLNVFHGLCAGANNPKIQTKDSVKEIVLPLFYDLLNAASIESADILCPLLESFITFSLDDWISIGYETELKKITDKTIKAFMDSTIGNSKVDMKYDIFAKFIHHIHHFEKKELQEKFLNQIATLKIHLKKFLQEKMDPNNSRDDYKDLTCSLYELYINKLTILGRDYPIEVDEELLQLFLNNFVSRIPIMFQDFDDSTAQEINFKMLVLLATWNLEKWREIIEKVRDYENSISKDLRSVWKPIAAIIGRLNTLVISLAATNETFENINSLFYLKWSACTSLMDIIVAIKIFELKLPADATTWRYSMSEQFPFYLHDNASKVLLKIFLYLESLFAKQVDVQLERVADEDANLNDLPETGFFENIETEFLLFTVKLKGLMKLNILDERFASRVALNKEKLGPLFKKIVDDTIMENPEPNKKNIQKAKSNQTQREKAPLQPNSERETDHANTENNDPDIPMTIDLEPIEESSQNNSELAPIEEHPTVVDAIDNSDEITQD
The experiment in a line: pull-down; cohesin tetramer (200-600 nM) held on Protein A dynabeads by anti-Pk antibody (Pk tag on Smc1); 200 nM prey, 30 °C, 5 min; 25 mM HEPES-KOH pH 7.6, 100 mM potassium glutamate, 10 mM magnesium acetate, 0.12% NP-40; SDS elution, Coomassie staining.

Another test has as its target T3, Tof1-Csm3 complex (S. cerevisiae (budding yeast), UniProt P53840 1-1238; Q04659 1-317).
T3 construct: Tof1, budding yeast; Csm3, budding yeast; Held on calmodulin dynabeads when used as bait; source: purified as previously described (Yeeles et al. 2017)
The experiment in a line: pull-down; Flag-tagged Chl1 (200-600 nM) held on anti-Flag M2 magnetic beads; Tof1-Csm3 as prey; interaction buffer.

B1: Csm3 (natural protein, S. cerevisiae (budding yeast), UniProt Q04659 1-317, looked up)
chain: MDQDFDSLLLGFNDSDSVQKDPTVPNGLDGSVVDPTIADPTAITARKRRPQVKLTAEKLLSDKGLPYVLKNAHKRIRISSKKNSYDNLSNIIQFYQLWAHELFPKAKFKDFMKICQTVGKTDPVLREYRVSLFRDEMGMSFDVGTRETGQDLERQSPMVEEHVTSAEERPIVADSFAQDKRNVNNVDYDNDEDDDIYHLSYRNRRGRVLDERGNNETVLNNVVPPKEDLDALLKTFRVQGPVGLEENEKKLLLGWLDAHRKMEKGSMTEEDVQLIQSLEEWEMNDIEGQHTHYDLLPGGDEFGVDQDELDAMKEMGF
notes: Csm3, budding yeast; the Csm3 chain of m2; Stood in the cross-linking sample as a chain of the Tof1-Csm3 complex; source: purified as part of Tof1-Csm3, as previously described (Yeeles et al. 2017)
For the molecule B1, the binding result in the test with Tof1 is recorded as “binds”.

B2: Smc3 (natural protein, S. cerevisiae (budding yeast), UniProt P47037 1-1230, looked up)
chain: MYIKRVIIKGFKTYRNETIIDNFSPHQNVIIGSNGSGKSNFFAAIRFVLSDDYSNLKREERQGLIHQGSGGSVMSASVEIVFHDPDHSMILPSGVLSRGDDEVTIRRTVGLKKDDYQLNDRNVTKGDIVRMLETAGFSMNNPYNIVPQGKIVALTNAKDKERLQLLEDVVGAKSFEVKLKASLKKMEETEQKKIQINKEMGELNSKLSEMEQERKELEKYNELERNRKIYQFTLYDRELNEVINQMERLDGDYNNTVYSSEQYIQELDKREDMIDQVSKKLSSIEASLKIKNATDLQQAKLRESEISQKLTNVNVKIKDVQQQIESNEEQRNLDSATLKEIKSIIEQRKQKLSKILPRYQELTKEEAMYKLQLASLQQKQRDLILKKGEYARFKSKDERDTWIHSEIEELKSSIQNLNELESQLQMDRTSLRKQYSAIDEEIEELIDSINGPDTKGQLEDFDSELIHLKQKLSESLDTRKELWRKEQKLQTVLETLLSDVNQNQRNVNETMSRSLANGIINVKEITEKLKISPESVFGTLGELIKVNDKYKTCAEVIGGNSLFHIVVDTEETATLIMNELYRMKGGRVTFIPLNRLSLDSDVKFPSNTTTQIQFTPLIKKIKYEPRFEKAVKHVFGKTIVVKDLGQGLKLAKKHKLNAITLDGDRADKRGVLTGGYLDQHKRTRLESLKNLNESRSQHKKILEELDFVRNELNDIDTKIDQVNGNIRKVSNDRESVLTNIEVYRTSLNTKKNEKLILEESLNAIILKLEKLNTNRTFAQEKLNTFENDLLQEFDSELSKEEKERLESLTKEISAAHNKLNITSDALEGITTTIDSLNAELESKLIPQENDLESKMSEVGDAFIFGLQDELKELQLEKESVEKQHENAVLELGTVQREIESLIAEETNNKKLLEKANNQQRLLLKKLDNFQKSVEKTMIKKTTLVTRREELQQRIREIGLLPEDALVNDFSDITSDQLLQRLNDMNTEISGLKNVNKRAFENFKKFNERRKDLAERASELDESKDSIQDLIVKLKQQKVNAVDSTFQKVSENFEAVFERLVPRGTAKLIIHRKNDNANDHDESIDVDMDAESNESQNGKDSEIMYTGVSISVSFNSKQNEQLHVEQLSGGQKTVCAIALILAIQMVDPASFYLFDEIDAALDKQYRTAVATLLKELSKNAQFICTTFRTDMLQVADKFFRVKYENKISTVIEVNREEAIGFIRGSNKFAEV
notes: Smc3, budding yeast; the Smc3 chain of m1; Stood in the cross-linking sample as a chain of cohesin; source: purified as part of cohesin, as previously described (Minamino et al. 2018)
For the molecule B2, the binding result in the test with Tof1 is listed as “binds”.

B3: Smc1 (natural protein, S. cerevisiae (budding yeast), UniProt P32908 1-1225, looked up)
chain: MGRLVGLELSNFKSYRGVTKVGFGESNFTSIIGPNGSGKSNMMDAISFVLGVRSNHLRSNILKDLIYRGVLNDENSDDYDNEGAASSNPQSAYVKAFYQKGNKLVELMRIISRNGDTSYKIDGKTVSYKDYSIFLENENILIKAKNFLVFQGDVEQIAAQSPVELSRMFEEVSGSIQYKKEYEELKEKIEKLSKSATESIKNRRRIHGELKTYKEGINKNEEYRKQLDKKNELQKFQALWQLYHLEQQKEELTDKLSALNSEISSLKGKINNEMKSLQRSKSSFVKESAVISKQKSKLDYIFKDKEKLVSDLRLIKVPQQAAGKRISHIEKRIESLQKDLQRQKTYVERFETQLKVVTRSKEAFEEEIKQSARNYDKFKLNENDLKTYNCLHEKYLTEGGSILEEKIAVLNNDKREIQEELERFNKRADISKRRITEELSITGEKLDTQLNDLRVSLNEKNALHTERLHELKKLQSDIESANNQEYDLNFKLRETLVKIDDLSANQRETMKERKLRENIAMLKRFFPGVKGLVHDLCHPKKEKYGLAVSTILGKNFDSVIVENLTVAQECIAFLKKQRAGTASFIPLDTIETELPTLSLPDSQDYILSINAIDYEPEYEKAMQYVCGDSIICNTLNIAKDLKWKKGIRGKLVTIEGALIHKAGLMTGGISGDANNRWDKEEYQSLMSLKDKLLIQIDELSNGQRSNSIRAREVENSVSLLNSDIANLRTQVTQQKRSLDENRLEIKYHNDLIEKEIQPKITELKKKLDDLENTKDNLVKEKEALQNNIFKEFTSKIGFTIKEYENHSGELMRQQSKELQQLQKQILTVENKLQFETDRLSTTQRRYEKAQKDLENAQVEMKSLEEQEYAIEMKIGSIESKLEEHKNHLDELQKKFVTKQSELNSSEDILEDMNSNLQVLKRERDGIKEDIEKFDLERVTALKNCKISNINIPISSETTIDDLPISSTDNEAITISNSIDINYKGLPKKYKENNTDSARKELEQKIHEVEEILNELQPNARALERYDEAEGRFEVINNETEQLKAEEKKILNQFLKIKKKRKELFEKTFDYVSDHLDAIYRELTKNPNSNVELAGGNASLTIEDEDEPFNAGIKYHATPPLKRFKDMEYLSGGEKTVAALALLFAINSYQPSPFFVLDEVDAALDITNVQRIAAYIRRHRNPDLQFIVISLKNTMFEKSDALVGVYRQQQENSSKIITLDLSNYAE
notes: Smc1, budding yeast; the Smc1 chain of m1; Stood in the cross-linking sample as a chain of cohesin; source: purified as part of cohesin, as previously described (Minamino et al. 2018)
Consider B3, for which the binding result with Tof1 is reported as “binds”.

B4: Chl1 (natural protein, S. cerevisiae (budding yeast), UniProt P22516 1-861, looked up)
chain: MDKKEYSETFYHPYKPYDIQVQLMETVYRVLSEGKKIAILESPTGTGKTLSLICATMTWLRMNKADIFTRMETNIKTNEDDSENLSDDEPDWVIDTYRKSVLQEKVDLLNDYEKHLNEINTTSCKQLKTMCDLDKEHGRYKSVDPLRKKRKGARHLDVSLEEQDFIPRPYESDSENNDTSKSTRGGRISDKDYKLSELNSQIITLLDKIDGKVSRDPNNGDRFDVTNQNPVKIYYASRTYSQLGQFTSQLRLPSFPSSFRDKVPDEKVKYLPLASKKQLCINPKVMKWKTLEAINDACADLRHSKEGCIFYQNTNEWRHCPDTLALRDMIFSEIQDIEDLVPLGKSLGICPYYASREALPIAEVVTLPYQYLLSESTRSSLQINLENSIVIIDEAHNLIETINSIYSSQISLEDLKNCHKGIVTYFNKFKSRLNPGNRVNLLKLNSLLMTLIQFIVKNFKKIGQEIDPNDMFTGSNIDTLNIHKLLRYIKVSKIAYKIDTYNQALKEEESSKNENPIKETHKKSVSSQPLLFKVSQFLYCLTNLTSEGQFFFEKNYSIKYMLLEPSKPFESILNQAKCVVLAGGTMEPMSEFLSNLLPEVPSEDITTLSCNHVIPKENLQTYITNQPELEFTFEKRMSPSLVNNHLFQFFVDLSKAVPKKGGIVAFFPSYQYLAHVIQCWKQNDRFATLNNVRKIFYEAKDGDDILSGYSDSVAEGRGSLLLAIVGGKLSEGINFQDDLCRAVVMVGLPFPNIFSGELIVKRKHLAAKIMKSGGTEEEASRATKEFMENICMKAVNQSVGRAIRHANDYANIYLLDVRYNRPNFRKKLSRWVQDSINSEHTTHQVISSTRKFFSMRSLNSR
notes: Chl1, budding yeast; codon-optimized ectopic copy; also called Flag-tagged Chl1; Chl1 helicase
Consider B4, for which the binding result (in test [1]; with Tof1-Csm3 complex) was “binds” each time.
